Measurements as given in PMC3145977, “Thermostabilisation of an Agonist-Bound Conformation of the Human Adenosine A2A Receptor” (Journal of Molecular Biology, 2011).
Positions count from the first letter of the chain named. Names may count otherwise. Marks after values point to notes of the source that are not given here.

B1: GL0: A2AR point mutant L48A, renamed GL0 (protein, UniProt P29274 1-412, looked up, variant L48A)
Adenosine receptor A2a: MPIMGSSVYITVELAIAVLAILGNVLVCWAVWLNSNLQNVTNYFVVSAAAADIAVGVLAIPFAITISTGFCAACHGCLFIACFVLVLTQSSIFSLLAIAIDRYIAIRIPLRYNGLVTGTRAKGIIAICWVLSFAIGLTPMLGWNNCGQPKEGKNHSQGCGEGQVACLFEDVVPMNYMVYFNFFACVLVPLLLMLGVYLRIFLAARRQLKQMESQPLPGERARSTLQKEVHAAKSLAIIVGLFALCWLPLHIINCFTFFCPDCSHAPLWLMYLAIVLSHTNSVVNPFIYAYRIREFRQTFRKIIRSHVLRQQEPFKAAGTSARVLAAHGSDGEQVSLRLNGHPPGVWANGSAPHPERRPNGYALGLVSGGSAQESQGNTGLPDVELLSHELKGVCPEPPGLDDPLAQDGAGVS
B2: GL21: A2AR mutant L48A-Q89A-A54L (protein, UniProt P29274 1-412, looked up, variant L48A Q89A A54L)
Adenosine receptor A2a: B1 Adenosine receptor A2a with A54L, Q89A
B3: GL22: A2AR mutant L48A-Q89A-F62A (protein, UniProt P29274 1-412, looked up, variant L48A Q89A F62A)
Adenosine receptor A2a: B1 Adenosine receptor A2a with F62A, Q89A
B4: GL24: A2AR mutant L48A-Q89A-F79A (protein, UniProt P29274 1-412, looked up, variant L48A Q89A F79A)
Adenosine receptor A2a: B1 Adenosine receptor A2a with F79A, Q89A
B5: GL25: A2AR mutant L48A-Q89A-T65A-A50L (protein, UniProt P29274 1-412, looked up, variant L48A Q89A T65A A50L)
Adenosine receptor A2a: B1 Adenosine receptor A2a with A50L, T65A, Q89A
B6: GL27: A2AR mutant L48A-Q89A-T65A-F83A (protein, UniProt P29274 1-412, looked up, variant L48A Q89A T65A F83A)
Adenosine receptor A2a: B1 Adenosine receptor A2a with T65A, F83A, Q89A
B7: GL29: A2AR mutant L48A-Q89A-T65A- S263A (protein, UniProt P29274 1-412, looked up, variant L48A Q89A T65A S263A)
Adenosine receptor A2a: B1 Adenosine receptor A2a with T65A, Q89A, S263A
B8: GL1: A2AR mutant L48A-V12A (protein, UniProt P29274 1-412, looked up, variant L48A V12A)
Adenosine receptor A2a: B1 Adenosine receptor A2a with V12A
B9: GL4: A2AR mutant L48A-A54L (protein, UniProt P29274 1-412, looked up, variant L48A A54L)
Adenosine receptor A2a: B1 Adenosine receptor A2a with A54L
B10: GL5: A2AR mutant L48A-V57A (protein, UniProt P29274 1-412, looked up, variant L48A V57A)
Adenosine receptor A2a: B1 Adenosine receptor A2a with V57A
B11: GL6: A2AR mutant L48A-F62A (protein, UniProt P29274 1-412, looked up, variant L48A F62A)
Adenosine receptor A2a: B1 Adenosine receptor A2a with F62A
B12: A54L: A2AR point mutant A54L (protein, UniProt P29274 1-412, looked up, variant A54L)
Adenosine receptor A2a: B1 Adenosine receptor A2a with A48L, A54L
B13: V57A: A2AR point mutant V57A (protein, UniProt P29274 1-412, looked up, variant V57A)
Adenosine receptor A2a: B1 Adenosine receptor A2a with A48L, V57A
B14: T65A: A2AR point mutant T65A (protein, UniProt P29274 1-412, looked up, variant T65A)
Adenosine receptor A2a: B1 Adenosine receptor A2a with A48L, T65A
B15: F83A: A2AR point mutant F83A (protein, UniProt P29274 1-412, looked up, variant F83A)
Adenosine receptor A2a: B1 Adenosine receptor A2a with A48L, F83A
B16: Q89A: A2AR point mutant Q89A (protein, UniProt P29274 1-412, looked up, variant Q89A)
Adenosine receptor A2a: B1 Adenosine receptor A2a with A48L, Q89A
B17: S90A: A2AR point mutant S90A (protein, UniProt P29274 1-412, looked up, variant S90A)
Adenosine receptor A2a: B1 Adenosine receptor A2a with A48L, S90A
B18: A236L: A2AR point mutant A236L (protein, UniProt P29274 1-412, looked up, variant A236L)
Adenosine receptor A2a: B1 Adenosine receptor A2a with A48L, A236L
B19: I238A: A2AR point mutant I238A (protein, UniProt P29274 1-412, looked up, variant I238A)
Adenosine receptor A2a: B1 Adenosine receptor A2a with A48L, I238A
B20: V282A: A2AR point mutant V282A (protein, UniProt P29274 1-412, looked up, variant V282A)
Adenosine receptor A2a: B1 Adenosine receptor A2a with A48L, V282A
B21: S47A: A2AR point mutant S47A (protein, UniProt P29274 1-412, looked up, variant S47A)
Adenosine receptor A2a: B1 Adenosine receptor A2a with S47A, A48L
B22: A50L: A2AR point mutant A50L (protein, UniProt P29274 1-412, looked up, variant A50L)
Adenosine receptor A2a: B1 Adenosine receptor A2a with A48L, A50L
B23: F62A: A2AR point mutant F62A (protein, UniProt P29274 1-412, looked up, variant F62A)
Adenosine receptor A2a: B1 Adenosine receptor A2a with A48L, F62A
B24: F79A: A2AR point mutant F79A (protein, UniProt P29274 1-412, looked up, variant F79A)
Adenosine receptor A2a: B1 Adenosine receptor A2a with A48L, F79A
B25: F242A: A2AR point mutant F242A (protein, UniProt P29274 1-412, looked up, variant F242A)
Adenosine receptor A2a: B1 Adenosine receptor A2a with A48L, F242A

These molecules were tested on [^3H]NECA-bound A2AR (assay: Thermostability assay of detergent-solubilised receptor with [3H]NECA bound (ligand plus format)). Settings: not given.
Assay type: physicochemical, human
Procedure: […]. After solubilisation in DDM, A2AR was bound to Ni^2+-NTA resin, washed to reduce the DDM concentration and then eluted (see Methods). […]. An aliquot of E. coli cells (14 mL) was thawed on ice and resupended in 500 μL of buffer A [50 mM Tris–HCl (pH 7.4), 0.4 M NaCl, 250 μg/mL lysozyme (Sigma) and 1 mg/mL DNase I (Sigma), supplemented with complete ethylenediaminetetraacetic acid (EDTA)-free Protease inhibitor cocktail (Roche)] and incubated for 1 h at 4 °C. Samples were then sonicated for 1 min at 4 °C using a cup-horn sonicator. The receptors were solubilised by adding 1% DDM and incubated for 1 h at 4 °C. Insoluble material was removed by centrifugation (5 min, 13,000g, 4 °C). The solubilised receptors were partially purified with Ni-NTA agarose (Qiagen). Agarose beads (300 μL) pre-equilibrated in buffer A were added to 700 μL of solubilised receptor. […].
(§1) The sample was incubated for 45 min at 4 °C, then 30 min at the specified temperature and then 30 min at 4 °C. Receptor-bound and free radioligands were separated as previously described on mini gel-filtration columns.[26] Receptor-bound ligands were transferred to a 96-well plate (PerkinElmer) and mixed with 200 μL of Optiphase supermix (PerkinElmer). The bound ^3H-labeled ligand was determined using a 1450 Microbeta Trilux counter (1 min per sample).
For all the thermostabilisation studies carried out in our laboratory, the apparent Tm is the temperature for which 50% of the solubilised receptor remains folded after 30 min of incubation. The rate constant of the protein denaturation is a function of the temperature, and consequently, thermal denaturation of a protein can be compared to a chemical reaction for which the rate of the reaction is dependant on the temperature. Arrhenius established that any chemical reaction is temperature dependant. […]. The reference measurement representing the total binding activity of the sample A0 was considered to be measured at 4 °C. From the graphical representation t = Log10(t1/2) (Fig. 2c), we could extract a half-life for each construct at any temperature to define the improvement in stability of the various mutants compared to WT A2AR.

Row | Molecule | Apparent Tm in DDM, Single measurement [°C] | Apparent Tm in DM, Single measurement [°C]
1 | B1 | 42.5 | –
2 | B2 | 46 | –
3 | B3 | 45.5 | –
4 | B4 | 46 | –
5 | B5 | – | 44.5
6 | B6 | – | 44
7 | B7 | – | 44.5
8 | B8 | 45.5 | –
9 | B9 | 46 | –
10 | B10 | 41.5 | –
11 | B11 | 45 | –

Same assay, conditions: [3H]NECA bound; DDM

Row | Molecule | Improvement in stability (apparent Tm) of NECA-bound A2AR versus WT [°C]
12 | B1 | 13.6

Same assay, conditions: [3H]NECA bound; DDM; from Fig. 2c

Row | Molecule | Improvement in stability compared to WT based on t1/2 (decrease in rate of unfolding) [fold]
13 | B1 | 49

The molecules below were run on [^3H]ZM241385-bound A2AR (assay: Thermostability assay of detergent-solubilised receptor with [3H]ZM241385 bound). Settings: not given.
Assay type: physicochemical, human
Procedure: An aliquot of E. coli cells (14 mL) was thawed on ice and resupended in 500 μL of buffer A [50 mM Tris–HCl (pH 7.4), 0.4 M NaCl, 250 μg/mL lysozyme (Sigma) and 1 mg/mL DNase I (Sigma), supplemented with complete ethylenediaminetetraacetic acid (EDTA)-free Protease inhibitor cocktail (Roche)] and incubated for 1 h at 4 °C. Samples were then sonicated for 1 min at 4 °C using a cup-horn sonicator. The receptors were solubilised by adding 1% DDM and incubated for 1 h at 4 °C. Insoluble material was removed by centrifugation (5 min, 13,000g, 4 °C). The solubilised receptors were partially purified with Ni-NTA agarose (Qiagen). Agarose beads (300 μL) pre-equilibrated in buffer A were added to 700 μL of solubilised receptor. […].
as §1

Row | Molecule | Apparent Tm, Antagonist [^3H]ZM241385 | ΔTm, Antagonist [^3H]ZM241385
14 | B1 | 0 ^b °C | –
15 | B12 | 38 °C | + 6 °C
16 | B13 | 38 °C | + 6 °C
17 | B14 | 38 °C | + 6 °C
18 | B15 | 16.5 °C | − 15.5 °C
19 | B16 | 26 °C | − 8 °C
20 | B17 | 32 °C | 0 °C
21 | B18 | 38 °C | + 6 °C
22 | B19 | 36 °C | + 4 °C
23 | B20 | 33 °C | + 1 °C
24 | B21 | 25.5 °C | − 6.5 °C
25 | B22 | 38.5 °C | + 6.5 °C

Same assay, conditions: at 4 °C; 100 nM radioligand

Row | Molecule | Binding of [^3H]ZM241385
26 | B1 | did not bind
27 | B23 | did not bind
28 | B24 | did not bind
29 | B25 | did not bind
